Where “and” joins values, the source holds several entries; their conditions need not be identical. Identical values can stand only once.
T1: mouse EP1 with Cycle 3 GFP at the C-terminus, on 293FT cells (mouse, UniProt P35375 1-405)
T1 construct: whole, on cells; also called mEP1; pcDNA-DEST47-mEP1; not shown: Cycle 3 GFP from the pcDNA-DEST47 vector
T1 sequence (looked up): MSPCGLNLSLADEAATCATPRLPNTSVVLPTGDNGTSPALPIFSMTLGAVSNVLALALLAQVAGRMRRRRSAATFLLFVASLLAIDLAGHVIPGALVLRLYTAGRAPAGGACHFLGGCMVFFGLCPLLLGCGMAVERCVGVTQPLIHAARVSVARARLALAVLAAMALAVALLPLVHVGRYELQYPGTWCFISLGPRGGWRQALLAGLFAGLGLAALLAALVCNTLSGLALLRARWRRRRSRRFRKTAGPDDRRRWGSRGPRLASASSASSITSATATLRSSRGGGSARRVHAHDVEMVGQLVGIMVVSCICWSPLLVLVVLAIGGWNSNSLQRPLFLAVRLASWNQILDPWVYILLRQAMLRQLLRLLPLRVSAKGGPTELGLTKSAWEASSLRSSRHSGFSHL

T2: mouse EP3 with Cycle 3 GFP at the C-terminus, on 293FT cells (mouse, UniProt P30557 1-365)
T2 construct: whole, on cells; also called mEP3; pcDNA-DEST47-mEP3; not shown: Cycle 3 GFP from the pcDNA-DEST47 vector
T2 sequence (looked up): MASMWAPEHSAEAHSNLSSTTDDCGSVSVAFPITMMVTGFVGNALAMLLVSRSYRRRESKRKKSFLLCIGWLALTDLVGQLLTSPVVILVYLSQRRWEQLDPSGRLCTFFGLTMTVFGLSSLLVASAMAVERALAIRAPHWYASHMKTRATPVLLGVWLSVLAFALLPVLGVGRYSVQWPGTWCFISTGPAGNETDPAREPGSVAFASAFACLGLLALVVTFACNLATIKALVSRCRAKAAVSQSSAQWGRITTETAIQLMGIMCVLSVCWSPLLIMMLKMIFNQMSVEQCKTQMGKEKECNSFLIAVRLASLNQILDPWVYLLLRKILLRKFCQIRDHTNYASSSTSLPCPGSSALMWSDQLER

T3: human EP1 with Cycle 3 GFP at the C-terminus, on 293FT cells (human, UniProt P34995 1-402)
T3 construct: whole, on cells; also called hEP1; pcDNA-DEST47-hEP1; not shown: Cycle 3 GFP from the pcDNA-DEST47 vector
T3 sequence (looked up): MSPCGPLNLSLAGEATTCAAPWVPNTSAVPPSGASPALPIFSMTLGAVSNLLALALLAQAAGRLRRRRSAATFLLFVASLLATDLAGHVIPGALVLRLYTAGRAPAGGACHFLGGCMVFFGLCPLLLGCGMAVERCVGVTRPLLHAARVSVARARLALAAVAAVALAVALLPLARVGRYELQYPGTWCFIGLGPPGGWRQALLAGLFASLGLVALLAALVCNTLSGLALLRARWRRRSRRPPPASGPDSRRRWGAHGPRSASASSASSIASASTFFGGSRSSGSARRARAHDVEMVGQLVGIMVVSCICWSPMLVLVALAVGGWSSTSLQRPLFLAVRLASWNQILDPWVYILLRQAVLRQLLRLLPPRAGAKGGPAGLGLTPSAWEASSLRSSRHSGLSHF


Tests used:
[1] = molecular target: human EP4 with V5 and 6xHIS tags at the C-terminus, on the CHO cell line stably expressing human EP4 (human, UniProt P35408 1-488); assay: cell-based or functional assay
[2] = molecular target: T1, mouse EP1 with Cycle 3 GFP at the …; assay: flow cytometry on 293FT cells transiently expressing EP-GFP
Method: (§1) The pcDNA-DEST47-hEP1, pcDNA-DEST47-hEP2, pcDNA-DEST47-hEP3, pcDNA-DEST47-hEP4, pcDNA-DEST47-mEP1, pcDNA-DEST47-mEP2, pcDNA-DEST47-mEP3, and pcDNA-DEST47-mEP4 produced in (11) above (10 μg each) were each introduced into 293FT cells, using Lipofectamin 2000. On the following day, the cells were washed with HBSS, and were then removed from the cell culture dish using an enzyme-free cell dissociation buffer. The cells were then recovered by centrifugation. The thus recovered cells are referred to as 293FT cells transiently expressing EP.
(§2) The binding test of the anti-EP4 antibody of the present invention and the 293FT transiently expressing EP cells was carried out with a flow cytometer according to the method described in (6) above. 293FT cells (5×10⁵ cells) that transiently expressed each of 8 types of PGE₂ receptor subtypes were used. As a primary antibody, 1 μg of the anti-EP4 antibody NBG016-mAb14 or NBG016-mAb21, or a mouse isotype control antibody (manufactured by BioRegend) was used. As a secondary antibody, a PE-labeled anti-mouse IgG antibody was used.

[3] = molecular target: T4, mouse EP2 with Cycle 3 GFP at the C-terminus, on 293FT cells (mouse, UniProt Q62053 1-362); assay: as above
T4 construct: whole, on cells; also called mEP2; pcDNA-DEST47-mEP2; not shown: Cycle 3 GFP from the pcDNA-DEST47 vector
Method: as §1, §2

[4] = molecular target: T2, mouse EP3 with Cycle 3 GFP at the …; assay: as above
Method: as §1, §2

[5] = molecular target: T5, mouse EP4 with Cycle 3 GFP at the C-terminus, on 293FT cells (mouse, UniProt P32240 1-513); assay: as above
T5 construct: whole, on cells; also called mEP4; pcDNA-DEST47-mEP4; not shown: Cycle 3 GFP from the pcDNA-DEST47 vector
Method: as §1, §2

[6] = molecular target: T3, human EP1 with Cycle 3 GFP at the …; assay: as above
Method: as §1, §2

[7] = molecular target: T6, human EP2 with Cycle 3 GFP at the C-terminus, on 293FT cells (human, UniProt P43116 1-358); assay: as above
T6 construct: whole, on cells; also called hEP2; pcDNA-DEST47-hEP2; not shown: Cycle 3 GFP from the pcDNA-DEST47 vector
Method: as §1, §2

human EP4 with V5 and 6xHIS tags at the C-terminus, on the CHO cell line stably expressing human EP4, sequence (P35408 whole entry): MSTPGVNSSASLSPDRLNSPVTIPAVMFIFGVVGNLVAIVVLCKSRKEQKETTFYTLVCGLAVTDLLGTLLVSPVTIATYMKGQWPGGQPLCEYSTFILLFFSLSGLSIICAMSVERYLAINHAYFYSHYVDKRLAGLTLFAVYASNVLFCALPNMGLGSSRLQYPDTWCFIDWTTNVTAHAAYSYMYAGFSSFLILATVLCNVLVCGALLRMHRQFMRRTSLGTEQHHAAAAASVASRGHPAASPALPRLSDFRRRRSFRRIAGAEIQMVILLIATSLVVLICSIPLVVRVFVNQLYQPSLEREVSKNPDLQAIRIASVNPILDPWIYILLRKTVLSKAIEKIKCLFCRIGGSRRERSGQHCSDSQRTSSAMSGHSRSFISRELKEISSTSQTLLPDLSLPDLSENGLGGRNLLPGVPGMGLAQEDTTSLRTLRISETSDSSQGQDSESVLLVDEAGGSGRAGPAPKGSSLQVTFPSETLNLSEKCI
T6 sequence (P43116 whole entry): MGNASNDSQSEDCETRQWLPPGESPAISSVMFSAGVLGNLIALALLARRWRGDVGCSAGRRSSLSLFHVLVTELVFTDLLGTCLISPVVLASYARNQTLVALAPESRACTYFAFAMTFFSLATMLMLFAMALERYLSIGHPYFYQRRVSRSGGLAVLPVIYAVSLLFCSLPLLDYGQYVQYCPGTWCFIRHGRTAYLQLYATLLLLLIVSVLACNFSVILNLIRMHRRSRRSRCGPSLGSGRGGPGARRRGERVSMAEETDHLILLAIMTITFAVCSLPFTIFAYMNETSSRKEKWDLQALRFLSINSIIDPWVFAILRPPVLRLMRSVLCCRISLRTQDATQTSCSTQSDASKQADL
T5 sequence (P32240 whole entry): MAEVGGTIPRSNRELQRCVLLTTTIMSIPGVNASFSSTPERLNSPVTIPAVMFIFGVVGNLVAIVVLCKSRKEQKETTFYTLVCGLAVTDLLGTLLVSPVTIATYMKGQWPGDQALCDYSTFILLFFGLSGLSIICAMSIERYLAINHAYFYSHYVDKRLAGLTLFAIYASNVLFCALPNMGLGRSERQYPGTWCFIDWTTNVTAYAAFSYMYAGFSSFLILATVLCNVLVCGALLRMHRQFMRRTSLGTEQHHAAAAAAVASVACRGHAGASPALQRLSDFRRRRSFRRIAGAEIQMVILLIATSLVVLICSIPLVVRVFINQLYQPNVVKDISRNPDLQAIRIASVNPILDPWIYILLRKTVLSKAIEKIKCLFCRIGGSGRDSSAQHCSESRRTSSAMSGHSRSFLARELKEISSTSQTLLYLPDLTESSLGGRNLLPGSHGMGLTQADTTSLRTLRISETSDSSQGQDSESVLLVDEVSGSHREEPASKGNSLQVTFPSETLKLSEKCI
T4 sequence (Q62053 whole entry): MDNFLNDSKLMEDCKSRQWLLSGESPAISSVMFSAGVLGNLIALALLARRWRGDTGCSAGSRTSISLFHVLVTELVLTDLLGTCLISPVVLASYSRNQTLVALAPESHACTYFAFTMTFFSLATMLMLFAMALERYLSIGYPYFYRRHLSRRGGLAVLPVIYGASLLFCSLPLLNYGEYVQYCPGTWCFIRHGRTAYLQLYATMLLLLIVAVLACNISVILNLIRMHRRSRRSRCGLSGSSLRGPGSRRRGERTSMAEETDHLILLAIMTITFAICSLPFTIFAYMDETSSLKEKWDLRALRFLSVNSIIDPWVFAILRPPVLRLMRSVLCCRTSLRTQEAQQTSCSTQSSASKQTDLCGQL

| IC50 of inhibition of PGE2-induced cAMP production in the CHO cell line stably expressing human EP4 (1.5×10^-10 M PGE2) [1] | IC50 of inhibition of PGE2-induced cAMP production in the CHO cell line stably expressing human EP4 (5×10^-11 M PGE2) [1] | Binder | binding result [2] | binding result [3] | binding result [4] | binding result [5] | binding result [6] | binding result [7] |
| --- | --- | --- | --- | --- | --- | --- | --- | --- |
| 4.6 µg/mL and ~28.8 nM | – | NBG016-mAb9 (antibody, mouse IgG1, kappa, V domains shown, Mouse IgG1, kappa, purified from hybridoma supernatant; the recombinant antibody (293FT supernatant) was expressed from the same genes; The entries may carry a signal peptide; also called recombinant antibody NBG016-mAb9) VH: QVQLKESGPGLVAPSQSLSITCTVSGFSLSSYTIHWVRQPPGRGLEWLGVIWAGGSTNYNSALMSRLRISKDTSRSQVFLKVNSLQTDDSAIYYCARDDFGYGFAYWGQGTLVTVSA VL: DVLMTQTPLSLPVSLGDQASISCRSSQSLVHTTGNTYLEWYLQKPGQSPKLLIYKISRRFSGVPDRFSGSGSGTDFTLRISRVEAADLGIYYCFQGSHIPPTFGAGTKLERKR | no binding | no binding | no binding | no binding | no binding | no binding |
| 1.1 µg/mL and ~6.9 nM | – | mouse IgG1 antibody NBG016-mAb21 (antibody) heavy: EIQLQQSGPELVKPGASVKVSCKASGFPFSTYNIYWVIQSHGKSLEWIGYIDPYNGGTSYNQKFRGKATLTVDKSSSTAYMHLNSLTSEDSAVYYCARRWYTYDGDWFAYWGQGTLVTVSSAKTTPPSVYPLAPGSAAQTNSMVTLGCLVKGYFPEPVTVTWNSGSLSSGVHTFPAVLQSDLYTLSSSVTVPSSPRPSETVTCNVAHPASSTKVDKKIVPRDCGCKPCICTVPEVSSVFIFPPKPKDVLTITLTPKVTCVVVDISKDDPEVQFSWFVDDVEVHTAQTQPREEQFNSTFRSVSELPIMHQDWLNGKEFKCRVNSAAFPAPIEKTISKTKGRPKAPQVYTIPPPKEQMAKDKVSLTCMITDFFPEDITVEWQWNGQPAENYKNTQPIMNTNGSYFVYSKLNVQKSNWEAGNTFTCSVLHEGLHNHHTEKSLSHSPGK light: DIKMTQSPSSMYVSLGERVTITCKASQDINRYLSWFQQKPGKSPKTLIYRANRMLDGVPSRFSGSGSGQDYSLTISSLEYEDMGNYYCLQYDEFPFTFGSGTKLEIKRADAAPTVSIFPPSSEQLTSGGASVVCFLNNFYPKDINVKWKIDGSERQNGVLNSWTDQDSKDSTYSMSSTLTLTKDEYERHNSYTCEATHKTSTSPIVKSFNRNEC | – | – | – | – | – | – |

More lines, now with the values behind:

| Binder | IC50 of inhibition of PGE2-induced cAMP production in the CHO cell line stably expressing human EP4 (1.5×10^-10 M PGE2) [1] | IC50 of inhibition of PGE2-induced cAMP production in the CHO cell line stably expressing human EP4 (5×10^-11 M PGE2) [1] | binding result [2] | binding result [3] | binding result [4] | binding result [5] | binding result [6] | binding result [7] |
| --- | --- | --- | --- | --- | --- | --- | --- | --- |
| NBG016-mAb14 (antibody, V domains shown) VH: EIQLQQSGPELVKPGASVKVSCKASGFPFSTYNIYWVIQSHGKRLEWIGYIDPYNGGTSYNQKFRGKATLTVDKSSSTAYMHLNRLTSEDSAVYYCARRWYTYDGDWFAYWGQGTLVTVSA VL: DIKMTQSPSSMYVSLGERVTITCKASQDINRYLSWFQQKPGKSPKTLIYRANRLLDGVPSRFSGSGSGLDYSLTISSLEYEDMGNYYCLQYDEFPFTFGSGTKLEIKR | – | 0.15 µg/mL and ~1 nM | – | – | – | – | – | – |
| NBG016-mAb21 (antibody, mouse IgG2a, Mouse IgG2a, kappa, purified from hybridoma supernatant; the recombinant antibody was expressed from the same genes; The entries may carry a signal peptide; also called recombinant antibody NBG016-mAb21; anti-EP4 antibody) heavy: EIQLQQSGPELVKPGASVKVSCKASGFPFSTYNIYWVIQSHGKSLEWIGYIDPYNGGTSYNQKFRGKATLTVDKSSSTAYMHLNSLTSEDSAVYYCARRWYTYDGDWFAYWGQGTLVTVSAAKTTAPSVYPLAPVCGDTTGSSVTLGCLVKGYFPEPVTLTWNSGSLSSGVHTFPAVLQSDLYTLSSSVTVTSSTWPSQSITCNVAHPASSTKVDKKIEPRGPTIKPCPPCKCPAPNLLGGPSVFIFPPKIKDVLMISLSPIVTCVVVDVSEDDPDVQISWFVNNVEVHTAQTQTHREDYNSTLRVVSALPIQHQDWMSGKEFKCKVNNKDLPAPIERTISKPKGSVRAPQVYVLPPPEEEMTKKQVTLTCMVTDFMPEDIYVEWTNNGKTELNYKNTEPVLDSDGSYFMYSKLRVEKKNWVERNSYSCSVVHEGLHNHHTTKSFSHSPGK light: DIKMTQSPSSMYVSLGERVTITCKASQDINRYLSWFQQKPGKSPKTLIYRANRMLDGVPSRFSGSGSGQDYSLTISSLEYEDMGNYYCLQYDEFPFTFGSGTKLEIKRADAAPTVSIFPPSSEQLTSGGASVVCFLNNFYPKDINVKWKIDGSERQNGVLNSWTDQDSKDSTYSMSSTLTLTKDEYERHNSYTCEATHKTSTSPIVKSFNRNEC | – | – | no binding (tested: 1 µg per 5×10^5 cells) | no binding (tested: 1 µg per 5×10^5 cells) | no binding (tested: 1 µg per 5×10^5 cells) | no binding (tested: 1 µg per 5×10^5 cells) | no binding (tested: 1 µg per 5×10^5 cells) | no binding (tested: 1 µg per 5×10^5 cells) |
